Assay: yeast display, Sf9 membrane polyspecificity reagent, FACS + sequencing; frameworks hold sequencing errors
Procedure, shortened: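 In a synthetic yeast display library (Saccharomyces cerevisiae BJ5465), nanobody expression was induced with galactose for 36–48 hours. FACS gates were set low and high (top ~1%) using anti-HA fluorescence for expression and streptavidin fluorescence for binding of the Sf9 membrane reagent. Each polyreactivity label is drawn from the gate of origin.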

| Sequence | polyreactivity (PSR sort gate) |
| --- | --- |
| QVQLHESGGGLVQAGGGLRLSCAASGSISSTGFMGWYRQAPGKEREPVAAIAPGTTTYYADSVKGRFTISRDNAKNTVYLQMNSLRPEDTAVYDCADFTDNRVAFLYWGQGTQVTVSS | low polyreactivity |
| QVQLHESGGGLVQAGGGLRLSCAASGSISSTGFMGWYRQPPGKEREPVAAIAPGTTTYYADSVKGRFTISRDNAKNTVYLQMISLRPEDTAVYYCAVFTDNRVAFLYWGQGTQVTVSS | low polyreactivity |
| QVQLHESGGGLVQAGGSLRLSCAASGTISVTYNMGWYRQAPGKEREFVAGNSTGATTNYADSVKDRFTISRDNAKNTLYLQMNRLKPEDTAVYYCAAHIYRQDHFYYWGQGTQVTVSS | low polyreactivity |
| QVQLHESGGGLVQAGGSLRLSCAASGTISYAGPMGWYRQAPGKEREFVAGIGVGSNTNYADSVKGRYTIIRDNAKNTVYLQMNSLKPVDTAVYYCAVGGYAPLGRPYWGQGTQVTVSS | low polyreactivity |
| QVQLHESGGGLVQAGGSLRLSCAASGTITYAGPMGWYRQAPGKEREFVAGIGVGSNTNYADSVKGRYTIIRDNAINTVYLEKNSLKPEDTPVYYCAVGGYAPLGRPYWGQVTQVTVSS | low polyreactivity |
| QVQLHESGGGLVQAGGSLRMSCAASGTISYAGPMGWYLQATGKESEFVAGIGVGSNTNYADSVKGRYTIIRDNAINTLYLQLNSLQPEDTAVYYGAVGGYAPLGRPYWGQGTQVTVRS | low polyreactivity |
| QVQLHESPGGLVLAGGSLRLSCAESGYISWSFTMGLYRKAPGKEREFVAGITYGGISYYADSVKGRFTISRDNAIITVYLQMNTLKPEDTAVYYCAAPQTNPYVYVYWGQGTQVTVSS | high polyreactivity |
| QVQLIESGGGLVQAGGSHRLSCAASGRIFAYYAMGWYRQAPGKERELVAGISQRGSRTYYADSVKGRFTISRDNAKNTVYLQMNSLKPEDTAVYYCAARDRRSVTMDYWGQGTQVTVSS | high polyreactivity |
| QVQLIESGGGLVQAGGSLRLSCAASGRIFYYNAMGWYRQAPGKERELVAVITRSGGSTYYADSVKGRFTISRDTAKNTVYLQMNSLKQEDTAVYYCAKTWKGGYGYDYWGQGTQVTVSS | low polyreactivity |
| QVQLIESGGGLVQAGGSLRLSCAASGRTFRRYAMGWYRQAPGKERELVAAIDASGGSTYYADSVMGRFTISRDTSKNTVYLQMTILKQEDSAVSYCNTCSGQLQLQGGRHEYWGQGTQVTVSS | high polyreactivity |
| QVQLKENGVGLVQAGGSLRMSCAASGYISHADEMGWNSQAPGKEHELVASISNGGSTNYADSVKGRFTISRDNAKNSVYLQMNSLKSEDTAVYYCAAWTGQVDINYYWGQGSQVTVSS | low polyreactivity |
| QVQLLDSGGGLVQAGCSLRLSCAASGLIFHRNAMGWYRQAPGKERELVAIISSGGGTTYYADSVKGRFTISRDNAKNTVYLQKNSLKPEDTAVYYCNARPRAYGSRGFDYWGQGTQVTVSS | high polyreactivity |
| QVQLLDSGGGLVQAGGSLRLSCAASGFTFDDYDKGWYRPPPGKERELVAAISWSGGSTYYADSVKGRFTISRDNAKNTVYLQMNSLKPEDTAVYYCAAERSYGGFDYWGQGTQVTVSS | low polyreactivity |
| QVQLLDSGGGLVQAGGSLRLSCAASGLILVPNTMGWYRQAPGKERELVADIRSGGTTNYADSVKGRFTISRDNAKNTVYLVMNSLKPEDTAVSYCAKEKYDYVGDYEVDYWGHGTQVTVSS | low polyreactivity |
| QVQLLDSGGGLVQAGGSLRLSCAASGSTISRNAMGWYRQAPGKERELVAAITSKGDSSYYADSVKGRFTISRDNAKNTVYLQMNSLKPEDTAVYYCAKDGVPAQDIGMDYWGQGTQVTVSS | low polyreactivity |
| QVQLLERGGGLVQAGGSLRLSCMASGSILVDRMSWYRQAPGKEHELVATIYDGGITYYADSMTGRFTISRDNAKNTVYLQMIRQRPEDTAVYYCGASFERYRYHVYCGQGTQVTVSS | low polyreactivity |
| QVQLLESGAGLVQAGGSLRLIWAASGIIIGHYGMGWYRQAPGKERELVAVISSSGGRTYYADSVKGRFTISRDNAKNTVYLQMNSLKPEDTAVYYCNGGPQVRYWQGTYEYWGQGTQVTVSS | high polyreactivity |
| QVQLLESGGALVQAVGSLRLSCMASGSILGDRMSWYRQAPGKEHELVATIYDGGITYYADSMKGRFTISRDNAIHTVYLQMNSLRPEDTAVYYCGASLEGYRYNVYCGQGTQVTVSS | low polyreactivity |
